Reference: publication PMC11480844 (2024)

B1: H2-Kb / Ed23 (parent complex)
chain 1: QQKVQQSPESLTVSEGAMASLNCTFSDRSSDNFRWYRQHSGKGLEVLVSIFSDGEKEEGSFTAHLNRASLHVFLHIREPQPSDSALYLCAVRGFWTNKVVFGTGTRLQVLP
chain 2: AQTIHQWPVAEIKAVGSPLSLGCTIKGKSSPNLYWYWQATGGTLQQLFYSITVGQVESVVQLNLSASRPKDDQFILSTEKLLLSHSGFYLCAWSPRQSSYEQYFGPGTRLTVL
chain 3: not shown
chain 4: IQKTPQIQVYSRHPPENGKPNILNCYVTQFHPPHIEIQMLKNGKKIPKVEMSDMSFSKDWSFYILAHTEFTPTETDTYACRVKHDSMAEPKTVYWDRDM
chain 5: SIINFEKL

Variants of: B1
Assay: % of reporter cells activated (NFAT-GFP), raw; also: test concentration or dose not given here

Variant	ratio to parent
chain 5 F5G	0.894
chain 5 F5A	1.36
chain 5 F5C	1.3
chain 5 F5Q	1.41
chain 5 F5R	1.28
chain 5 F5Y	1.32
chain 5 F5N	1.28
chain 5 F5S	1.19
chain 5 F5D	0.997
chain 5 F5W	1.08
chain 5 F5M	1.15
chain 5 F5L	1.17
chain 5 F5K	1.19
chain 5 F5V	1.33
chain 5 F5P	0.864
chain 5 F5T	1.33
chain 5 F5E	0.937
chain 5 I3G	1.04
chain 5 I3H	1.55
chain 5 I3F	0.433
chain 5 I3E	1.21
chain 5 I3C	1.2
chain 5 I3L	1.4
chain 5 I3D	0.768
chain 5 E6G	1.28

Variant	ratio to parent
chain 5 E6P	0.0439
chain 5 E6F	0.147
chain 5 E6C	0.0131
chain 5 E6I	0.0187
chain 5 E6Q	0.604
chain 5 E6Y	0.588
chain 5 E6S	0.0871
chain 5 E6W	0.0503
chain 5 E6V	0.0859
chain 5 E6L	0.0247
chain 5 E6R	0.316
chain 5 E6D	0.828
chain 5 E6M	0.486
chain 5 I2F	1.21
chain 5 I2S	1.12
chain 5 I2Q	1.39
chain 5 I2T	1.47
chain 5 I2Y	0.96
chain 5 I2A	1.3
chain 5 I2D	1.31
chain 5 I2K	1.54
chain 5 I2L	1.49
chain 5 I2P	1.38
chain 5 I2R	1.72
chain 5 I2M	1.46

Next, values leading:

ratio to parent	Variant
0.132	chain 5 K7Q
0.155	chain 5 K7D
1.18	chain 5 K7G
1	chain 5 K7S
0.919	chain 5 K7C
1.42	chain 5 K7R
0.798	chain 5 K7P
0.598	chain 5 K7A
0.0934	chain 5 K7E
0.477	chain 5 K7L
0.145	chain 5 K7T
0.142	chain 5 K7I
0.654	chain 5 K7Y
0.454	chain 5 S1L
0.722	chain 5 S1C
1.64	chain 5 S1T
1.26	chain 5 S1A
1.61	chain 5 S1Q
1.12	chain 5 S1V
0.348	chain 5 S1M

ratio to parent	Variant
0.523	chain 5 S1H
0.515	chain 5 S1W
1.01	chain 5 S1R
1.27	chain 5 S1E
1.29	chain 5 I3P
0.636	chain 5 I3R
1.38	chain 5 I3N
1.24	chain 5 I3M
0.975	chain 5 I3W
1.22	chain 5 I3T
1.23	chain 5 I3S
1.22	chain 5 I3Q
0.108	chain 5 N4C
0.869	chain 5 N4K
0.18	chain 5 N4A
0.0702	chain 5 N4Q
0.813	chain 5 N4Y
0.451	chain 5 N4G
0.277	chain 5 N4I
0.207	chain 5 N4V

ratio to parent	Variant
0.415	chain 5 N4E
0.71	chain 5 N4P
0.586	chain 5 N4F
0.631	chain 5 N4L
0.342	chain 5 N4T
1.25	chain 5 L8H
0.692	chain 5 L8A
1.02	chain 5 L8T
0.833	chain 5 L8E
1.13	chain 5 L8F
1.15	chain 5 L8I
0.828	chain 5 L8S
0.909	chain 5 L8D
1.26	chain 5 L8R
0.785	chain 5 L8M
1.06	chain 5 L8C
1.05	chain 5 L8N
1.24	chain 5 L8Y
1.21	chain 5 L8Q
